167 variants from the Human Domainome abundance scans (Beltran et al. 2025) can be followed below.

± gives the uncertainty stated by the source.

First the molecules themselves.
B1: KAT8 regulatory NSL complex subunit 2, residues 28 to 91; numbered along this chain, Q9H9L4 (parent)
chain: CAFTHRPCSHPRLEGQEFCIKHILEDKNAPFKQCSYISTKNGKRCPNAAPKPEKKDGVSFCAEH

Variants of B1 are the subject of the data set. The data set can be described thus: abundance fitness (aPCA) (normalised: wild type 0, dead -1); higher = more abundant; growth selection in yeast, the domain comes from the species named. As to conditions: Homo sapiens.
With G15H, the abundance fitness is -0.263 ± 0.11.

Turning to G15M, the abundance fitness is -0.199 ± 0.07. As for G15C, the abundance fitness was -0.403 ± 0.14. With G15Q the figure was -0.134 ± 0.11. With G15A the figure was -0.284 ± 0.064.

For G15D, the abundance fitness is -0.127 ± 0.14.

In the case of G15T, the abundance fitness was -0.428 ± 0.089.

For the variant P52Q, the abundance fitness is -0.061 ± 0.078. For P52H, the abundance fitness was -0.133 ± 0.07. Take P52Y: the abundance fitness is -0.29 ± 0.13. As to P52R, the abundance fitness was -0.144 ± 0.049. With I23S, the abundance fitness was -0.156 ± 0.06. Turning to I23L, the abundance fitness was -0.143 ± 0.042.

Take I23E: the abundance fitness was -0.351 ± 0.1. Turning to P46M, the abundance fitness is -0.1 ± 0.074. Take P46L: the abundance fitness is -0.079 ± 0.042.

In the case of P46N, the abundance fitness was -0.014 ± 0.062. Take P46R: the abundance fitness is -0.042 ± 0.043. With P46F the figure was -0.148 ± 0.072. In the case of P46W, the abundance fitness was -0.024 ± 0.062. As to P46T, the abundance fitness was -0.049 ± 0.056. With C34Y the figure was -0.604 ± 0.093; with C34W, -0.674 ± 0.065.

Take C34T: the abundance fitness was -0.71 ± 0.097. As for C34P, the abundance fitness is -0.346 ± 0.12. For the variant C34R, the abundance fitness was -0.578 ± 0.071. With A2L the figure was -0.152 ± 0.069; with A2R, -0.138 ± 0.076; with A2V, -0.235 ± 0.051. Under K43P stands -0.072 ± 0.056; under K43A, -0.117 ± 0.056. Consider K43R, for which the abundance fitness was -0.055 ± 0.034. With K43N the figure was 0.027 ± 0.095; with K43E, -0.044 ± 0.078; with K43M, -0.203 ± 0.092. On to F31R, for which the abundance fitness was -0.203 ± 0.059. With F31H the figure was -0.261 ± 0.12; with F31P, -0.183 ± 0.072. With F31T the figure was -0.21 ± 0.063.

As to E17F, the abundance fitness is -0.19 ± 0.091.

As to E17M, the abundance fitness is -0.041 ± 0.075.

Consider E17Q, for which the abundance fitness is -0.077 ± 0.073. With E17A the figure was -0.207 ± 0.07. As to E17T, the abundance fitness was -0.051 ± 0.054. For the variant E17S, the abundance fitness is -0.105 ± 0.056.

E17V: the abundance fitness was -0.102 ± 0.052.

Consider E17Y, for which the abundance fitness was -0.106 ± 0.073. As for C1W, the abundance fitness was -0.837 ± 0.12. Turning to C1Y, the abundance fitness is -0.802 ± 0.062. For the variant C1S, the abundance fitness was -0.358 ± 0.072. With C1K, the abundance fitness is -0.155 ± 0.15. As to C1R, the abundance fitness was -0.545 ± 0.14. As to V58K, the abundance fitness was -0.037 ± 0.14.

Turning to V58T, the abundance fitness was -0.1 ± 0.1. Take V58E: the abundance fitness is -0.057 ± 0.092. For K51D, the abundance fitness was -0.05 ± 0.12. Turning to K51M, the abundance fitness was -0.099 ± 0.11.

For the variant K51H, the abundance fitness was -0.166 ± 0.091. K51T: the abundance fitness is -0.112 ± 0.073. As to K51E, the abundance fitness is -0.064 ± 0.13. With K51G the figure was -0.033 ± 0.088; with K51V, -0.035 ± 0.085. For the variant K40Y, the abundance fitness is -0.052 ± 0.19. K40D: the abundance fitness was -0.14 ± 0.17.

Regarding E63M, the abundance fitness is -0.165 ± 0.075. E63D: the abundance fitness turned out to be 0.003 ± 0.06. On to E63Q, for which the abundance fitness is -0.175 ± 0.091. Under E63T stands -0.054 ± 0.065; under E63Y, -0.138 ± 0.08.

Take F3Y: the abundance fitness was -0.151 ± 0.057. As for F3L, the abundance fitness was -0.332 ± 0.049. On to F3D, for which the abundance fitness is -0.255 ± 0.075. As for F3I, the abundance fitness was 0.033 ± 0.13. Consider F3H, for which the abundance fitness was -0.026 ± 0.086. Take N47V: the abundance fitness is -0.063 ± 0.047. Consider N47H, for which the abundance fitness was -0.118 ± 0.079. With N47I the figure was -0.107 ± 0.078; with N47P, -0.511 ± 0.073; with N47Y, -0.132 ± 0.083.

N47G: the abundance fitness was -0.076 ± 0.073. Take N47E: the abundance fitness was -0.049 ± 0.06.

For S38H, the abundance fitness was -0.111 ± 0.085. Take S38F: the abundance fitness was -0.038 ± 0.075. S38G: the abundance fitness was -0.048 ± 0.058. Regarding S38M, the abundance fitness is -0.159 ± 0.1. Under K21S stands -0.125 ± 0.053; under K21W, -0.173 ± 0.062; under K21F, 0.048 ± 0.12. With K21L the figure was -0.127 ± 0.048; with K21G, -0.121 ± 0.056; with K21I, -0.251 ± 0.13. For the variant K21H, the abundance fitness was -0.005 ± 0.094.

Take K21E: the abundance fitness is -0.085 ± 0.078. Regarding K21A, the abundance fitness was -0.057 ± 0.058. As for K21C, the abundance fitness is -0.119 ± 0.1. With E14T the figure was -0.129 ± 0.051; with E14A, -0.107 ± 0.086; with E14D, -0.152 ± 0.13. Regarding E14N, the abundance fitness is -0.334 ± 0.18. As for E14S, the abundance fitness was -0.147 ± 0.059. On to A29K, for which the abundance fitness was -0.186 ± 0.079. Consider A29P, for which the abundance fitness is -0.225 ± 0.058. As for A29R, the abundance fitness is -0.167 ± 0.037. A29D: the abundance fitness is -0.225 ± 0.1. As to H10F, the abundance fitness is -0.076 ± 0.1. Consider H10G, for which the abundance fitness was -0.01 ± 0.066.

Consider H10T, for which the abundance fitness was -0.11 ± 0.056. Under F18W stands -0.356 ± 0.073.

F18N: the abundance fitness was -0.61 ± 0.1. In the case of F18E, the abundance fitness is -0.622 ± 0.092. For the variant F18R, the abundance fitness is -0.325 ± 0.041. As to F18V, the abundance fitness was -0.509 ± 0.062. In the case of F18D, the abundance fitness is -0.547 ± 0.097.

On to F18L, for which the abundance fitness is -0.139 ± 0.052. With F18T the figure was -0.408 ± 0.053.

F18Y: the abundance fitness is -0.11 ± 0.084.

R6F: the abundance fitness was -0.016 ± 0.076. With R6Y the figure was -0.06 ± 0.09; with R6Q, -0.072 ± 0.073. Under R6V stands -0.081 ± 0.058.

For R6P, the abundance fitness is -0.047 ± 0.069. With L13W the figure was -0.315 ± 0.12. Consider L13K, for which the abundance fitness is -0.24 ± 0.18.

With L13A, the abundance fitness is -0.187 ± 0.057. On to L13T, for which the abundance fitness is -0.308 ± 0.082. Consider L13H, for which the abundance fitness is -0.215 ± 0.088.

Consider I37W, for which the abundance fitness was -0.127 ± 0.052. For I37A, the abundance fitness was -0.177 ± 0.062. With I37Q the figure was -0.031 ± 0.12; with I37E, -0.042 ± 0.095; with I37N, -0.042 ± 0.13. In the case of I37R, the abundance fitness was -0.045 ± 0.045. Under S35E stands -0.014 ± 0.064.

In the case of S35L, the abundance fitness was -0.14 ± 0.048. With S35N, the abundance fitness was -0.117 ± 0.075. With S35K, the abundance fitness is -0.046 ± 0.069. Turning to S35Y, the abundance fitness was -0.113 ± 0.1. For S35P, the abundance fitness is -0.177 ± 0.074. For the variant S35W, the abundance fitness is -0.169 ± 0.1. Consider D56Q, for which the abundance fitness is -0.073 ± 0.098.

As for D56W, the abundance fitness was -0.305 ± 0.25.

In the case of D56C, the abundance fitness is -0.067 ± 0.19. D56I: the abundance fitness was -0.2 ± 0.1.

Turning to D56K, the abundance fitness worked out at 0.011 ± 0.32.

As for D56F, the abundance fitness is -0.137 ± 0.14. Consider N41W, for which the abundance fitness was -0.171 ± 0.07. As for N41Q, the abundance fitness is -0.098 ± 0.071. As for N41H, the abundance fitness is -0.115 ± 0.097.

As to N41L, the abundance fitness is -0.09 ± 0.06. With N41A the figure was -0.058 ± 0.053; with N41G, -0.03 ± 0.053; with N41E, -0.005 ± 0.07. Consider G42Y, for which the abundance fitness was -0.094 ± 0.072.

Turning to G42K, the abundance fitness amounted to 0.051 ± 0.078. In the case of G42Q, the abundance fitness was -0.008 ± 0.15. With G42D, the abundance fitness was -0.092 ± 0.075. In the case of G42W, the abundance fitness was -0.246 ± 0.083. For C8E, the abundance fitness is -0.711 ± 0.054. Under C8N stands -0.641 ± 0.1; under C8R, -1.02 ± 0.06; under C8L, -1.31 ± 0.07. Regarding C8H, the abundance fitness is -0.854 ± 0.085. With C8V the figure was -0.949 ± 0.058; with Y36S, -0.06 ± 0.056; with Y36W, -0.122 ± 0.069. For Y36L, the abundance fitness is -0.156 ± 0.05. Consider Y36N, for which the abundance fitness is -0.157 ± 0.13.
